{"source": "paper PMC3407194", "test_in_all_cases": "primer extension with trap", "details_in_all_cases": "Primer extension: 50 mM Tris-HCl pH 8.0, 80 mM KCl, 6 mM MgCl2, 1 mM DTT, 0.1 mg/ml BSA, room temperature, 1 nM duplex; filter binding: Tris-HCl pH 8.0, 80 mM …", "key": {"HIV RT (HIV)": {"target": "HIV RT (HIV) (UniProt P04585+P04585)"}, "[1]": {"target": "MuLV RT (Moloney murine leukemia virus) (UniProt P03355)"}, "[2]": {"target": "T1, Ty3 RT (Ty3 retrotransposon) (UniProt Q99315)", "T1 sequence": "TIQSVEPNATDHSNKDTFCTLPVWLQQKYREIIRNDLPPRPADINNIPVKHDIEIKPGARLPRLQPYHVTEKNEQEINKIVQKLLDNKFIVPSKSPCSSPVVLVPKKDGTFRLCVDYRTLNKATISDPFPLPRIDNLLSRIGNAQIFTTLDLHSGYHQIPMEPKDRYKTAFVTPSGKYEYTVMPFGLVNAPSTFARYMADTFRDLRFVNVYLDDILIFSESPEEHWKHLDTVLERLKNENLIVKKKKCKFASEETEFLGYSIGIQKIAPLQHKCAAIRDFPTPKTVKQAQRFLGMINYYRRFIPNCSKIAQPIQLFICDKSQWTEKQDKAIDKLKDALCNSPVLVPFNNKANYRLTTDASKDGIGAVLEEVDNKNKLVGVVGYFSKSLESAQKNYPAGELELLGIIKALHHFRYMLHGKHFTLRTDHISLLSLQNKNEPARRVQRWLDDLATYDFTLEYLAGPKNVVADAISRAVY"}, "[3]": {"target": "T2, AMV RT (avian myeloblastosis virus) (UniProt Q83133+Q83133)", "T2 sequence 1": "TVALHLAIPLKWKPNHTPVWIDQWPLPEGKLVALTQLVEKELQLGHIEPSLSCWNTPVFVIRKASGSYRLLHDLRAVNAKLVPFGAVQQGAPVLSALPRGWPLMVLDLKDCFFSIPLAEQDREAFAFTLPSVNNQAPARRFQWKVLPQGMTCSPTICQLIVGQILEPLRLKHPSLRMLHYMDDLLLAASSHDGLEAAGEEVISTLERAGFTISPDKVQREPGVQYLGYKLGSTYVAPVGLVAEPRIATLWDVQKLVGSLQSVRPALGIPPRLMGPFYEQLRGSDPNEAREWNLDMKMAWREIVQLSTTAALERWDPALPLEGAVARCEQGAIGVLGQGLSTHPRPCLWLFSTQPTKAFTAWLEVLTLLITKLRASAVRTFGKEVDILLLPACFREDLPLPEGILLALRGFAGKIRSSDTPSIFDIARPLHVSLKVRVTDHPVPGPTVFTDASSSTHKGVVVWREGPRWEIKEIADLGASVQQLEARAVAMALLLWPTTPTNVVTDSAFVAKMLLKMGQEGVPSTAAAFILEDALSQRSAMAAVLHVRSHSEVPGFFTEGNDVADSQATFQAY", "T2 sequence 2": "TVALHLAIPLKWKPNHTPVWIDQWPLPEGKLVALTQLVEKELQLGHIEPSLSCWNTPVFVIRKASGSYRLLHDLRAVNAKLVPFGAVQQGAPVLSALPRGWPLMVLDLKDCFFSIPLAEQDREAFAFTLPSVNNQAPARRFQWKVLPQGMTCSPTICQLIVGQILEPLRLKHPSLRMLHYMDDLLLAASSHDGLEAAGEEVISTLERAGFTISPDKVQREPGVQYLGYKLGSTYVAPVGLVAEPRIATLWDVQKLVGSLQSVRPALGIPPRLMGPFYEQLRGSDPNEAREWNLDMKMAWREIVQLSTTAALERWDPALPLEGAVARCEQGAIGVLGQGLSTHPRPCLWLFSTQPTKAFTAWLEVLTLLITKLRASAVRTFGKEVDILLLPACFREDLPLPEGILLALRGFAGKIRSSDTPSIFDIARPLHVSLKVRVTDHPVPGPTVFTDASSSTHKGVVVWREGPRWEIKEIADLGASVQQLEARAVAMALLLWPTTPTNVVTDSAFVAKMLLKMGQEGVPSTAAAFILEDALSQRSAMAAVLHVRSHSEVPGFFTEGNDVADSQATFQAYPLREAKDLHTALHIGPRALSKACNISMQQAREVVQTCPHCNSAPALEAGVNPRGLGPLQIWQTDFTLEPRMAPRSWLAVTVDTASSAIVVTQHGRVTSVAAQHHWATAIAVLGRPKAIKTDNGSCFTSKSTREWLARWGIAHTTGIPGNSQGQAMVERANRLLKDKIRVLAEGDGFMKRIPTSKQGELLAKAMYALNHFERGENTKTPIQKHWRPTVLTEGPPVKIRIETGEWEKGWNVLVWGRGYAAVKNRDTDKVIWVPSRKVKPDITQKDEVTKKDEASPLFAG"}}}
{"substance": "Random DNA", "values": [{"measurement": "Kd", "setting": "HIV RT (HIV)", "value": 106, "unit": "nM"}, {"measurement": "Kd", "setting": "[1]", "value": 116, "unit": "nM"}, {"measurement": "Kd", "setting": "[2]", "value": 62, "unit": "nM"}, {"measurement": "Kd", "setting": "[3]", "value": 20, "unit": "nM"}]}
